These results are taken from PMC9352680, “A comprehensive thermodynamic model for RNA binding by the Saccharomyces cerevisiae Pumilio protein PUF4”.

The target in the data set is T1, PUF4 RNA-binding domain (Saccharomyces cerevisiae, UniProt P25339 537-888).
T1 sequence: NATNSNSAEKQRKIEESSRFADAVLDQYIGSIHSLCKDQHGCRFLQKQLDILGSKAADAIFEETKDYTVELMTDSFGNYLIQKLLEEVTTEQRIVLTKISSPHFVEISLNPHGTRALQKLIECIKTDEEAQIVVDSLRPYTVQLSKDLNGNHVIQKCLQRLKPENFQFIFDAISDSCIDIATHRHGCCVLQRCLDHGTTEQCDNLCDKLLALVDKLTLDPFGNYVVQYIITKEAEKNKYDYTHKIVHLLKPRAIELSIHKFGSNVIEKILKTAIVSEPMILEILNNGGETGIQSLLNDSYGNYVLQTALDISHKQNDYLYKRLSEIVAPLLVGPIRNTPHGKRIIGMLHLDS
The data set is described as follows: Mg; RNA-MaP; 20 mM Na-HEPES pH 7.4, 30 mM KOAc, 0.75 mM MgCl2, 0.1% Tween-20, 5% glycerol, 0.1 mg/mL BSA, 2 mM DTT; 25 C; 0.0125-409.6 nM protein. Conditions: tags: N-His6-TEV cleaved; C-SNAP kept, Cy3B-labelled; label: tethered on chip by stalled RNA polymerase.

With UCUCUUUGUUUAUUCUCUCUU (ssRNA) [Ib_S1_P4E.1_K4.1_C4.1_H4.1_[A4T]_A4.1_F4.1_[A9C]_T4.1], the Kd is 804 nM.

B1: Ic_S4_P4E.1_K4.1_C4.1_H4.1_A4.1_[T5G]_[A6C]_F4.1_[T8G]_[A9T]_T4.1 (ssRNA)
RNA: UUUGACAACUGAUCGUUCUUUCUUGUAGCUGUUUCUUUCUCGAUCAGUUGUCUUU
Turning to B1, the Kd stood at 117 nM.

B2: Ic_S4_P4E.1_K4.1_C4.1_H4.1_A4.1_[T5G]_[A6T]_[T7C]_F4.1_[T8C]_[A9C]_T4.1 (ssRNA)
RNA: UUUGACAACUGAUCGUUCUUUCUUGUAGUCCCUUCUUUCUCGAUCAGUUGUCUUU
On to B2, for which the Kd is 514 nM.

B3: Ic_S4_P4E.1_K4.1_C4.1_H4.1_A4.1_[T5C]_[A6G]_[T7C]_F4.1_[T8G]_[A9T]_T4.1 (ssRNA)
RNA: UUUGACAACUGAUCGUUCUUUCUUGUACGCGUUUCUUUCUCGAUCAGUUGUCUUU
As for B3, the dissociation constant (Kd) stood at 400 nM.

B4: Ic_S4_P4E.1_K4.1_C4.1_H4.1_A4.1_[T5G]_[A6T]_[T7A]_F4.1_[A9T]_T4.1 (ssRNA)
RNA: UUUGACAACUGAUCGUUCUUUCUUGUAGUAUUUUCUUUCUCGAUCAGUUGUCUUU
For B4, the affinity, expressed as Kd, was 40.6 nM.

B5: Ic_S4_P4E.1_K4.1_C4.1_H4.1_A4.1_[T5G]_[A6T]_[T7A]_F4.1_[T8G]_[A9T]_T4.1 (ssRNA)
RNA: UUUGACAACUGAUCGUUCUUUCUUGUAGUAGUUUCUUUCUCGAUCAGUUGUCUUU
As for B5, binding was characterised by a dissociation constant (Kd) of 649 nM.

B6: Ic_S4_P4E.1_K4.1_C4.1_H4.1_A4.1_[T5G]_[A6T]_[T7A]_F4.1_[T8A]_T4.1 (ssRNA)
RNA: UUUGACAACUGAUCGUUCUUUCUUGUAGUAAAUUCUUUCUCGAUCAGUUGUCUUU
For the molecule B6, the Kd turned out to be 445 nM. The Kd values of the last two molecules are within 1.5-fold of each other.

B7: Ic_S4_P4E.1_K4.1_C4.1_H4.1_A4.1_[T5G]_[A6T]_[T7C]_F4.1_[A9C]_T4.1 (ssRNA)
RNA: UUUGACAACUGAUCGUUCUUUCUUGUAGUCUCUUCUUUCUCGAUCAGUUGUCUUU
For B7, the Kd came to 155 nM.

B8: Ic_S4_P4E.1_K4.1_C4.1_H4.1_A4.1_[T5G]_[A6T]_F4.1_[T8A]_[A9C]_T4.1 (ssRNA)
RNA: UUUGACAACUGAUCGUUCUUUCUUGUAGUUACUUCUUUCUCGAUCAGUUGUCUUU
For B8, binding was characterised by a dissociation constant (Kd) of 875 nM.

B9: Ic_S4_P4E.1_K4.1_C4.1_H4.1_A4.1_[T5C]_[A6G]_[T7G]_F4.1_[A9C]_T4.1 (ssRNA)
RNA: UUUGACAACUGAUCGUUCUUUCUUGUACGGUCUUCUUUCUCGAUCAGUUGUCUUU
Turning to B9, the Kd came to 514 nM. Compared with the last molecule, the Kd is about 1.7-fold lower.

B10: Ic_S4_P4E.1_K4.1_C4.1_H4.1_A4.1_[T5G]_[A6T]_[T7G]_F4.1_[A9C]_T4.1 (ssRNA)
RNA: UUUGACAACUGAUCGUUCUUUCUUGUAGUGUCUUCUUUCUCGAUCAGUUGUCUUU
B10: the Kd worked out at 238 nM.

B11: Ic_S4_P4E.1_K4.1_C4.1_H4.1_A4.1_[T5G]_[A6C]_F4.1_[T8C]_T4.1 (ssRNA)
RNA: UUUGACAACUGAUCGUUCUUUCUUGUAGCUCAUUCUUUCUCGAUCAGUUGUCUUU
In turn, B11 showed a Kd of 365 nM.

B12: Ic_S4_P4E.1_K4.1_C4.1_H4.1_A4.1_[T5G]_[A6T]_[T7G]_F4.1_[T8C]_[A9T]_T4.1 (ssRNA)
RNA: UUUGACAACUGAUCGUUCUUUCUUGUAGUGCUUUCUUUCUCGAUCAGUUGUCUUU
In turn, B12 displayed a Kd of 467 nM. The Kd values of the last two molecules are within 1.5-fold of each other.

B13: Ic_S4_P4E.1_K4.1_C4.1_H4.1_A4.1_[T5G]_[A6T]_F4.1_[T8C]_[A9T]_T4.1 (ssRNA)
RNA: UUUGACAACUGAUCGUUCUUUCUUGUAGUUCUUUCUUUCUCGAUCAGUUGUCUUU
Turning to B13, the Kd came out at 96 nM.

B14: Ic_S4_P4E.1_K4.1_C4.1_H4.1_A4.1_[T5G]_[A6T]_[T7G]_F4.1_T4.1 (ssRNA)
RNA: UUUGACAACUGAUCGUUCUUUCUUGUAGUGUAUUCUUUCUCGAUCAGUUGUCUUU
Consider B14, for which binding was characterised by a dissociation constant (Kd) of 12.1 nM.

B15: Ic_S4_P4E.1_K4.1_C4.1_H4.1_A4.1_[T5G]_[A6T]_[T7C]_F4.1_[A9G]_T4.1 (ssRNA)
RNA: UUUGACAACUGAUCGUUCUUUCUUGUAGUCUGUUCUUUCUCGAUCAGUUGUCUUU
With B15, the Kd came out at 166 nM.

B16: Ic_S4_P4E.1_K4.1_C4.1_H4.1_A4.1_[T5G]_[A6T]_F4.1_[T8G]_[A9T]_T4.1 (ssRNA)
RNA: UUUGACAACUGAUCGUUCUUUCUUGUAGUUGUUUCUUUCUCGAUCAGUUGUCUUU
As for B16, the affinity, expressed as Kd, was 291 nM.

B17: Ic_S4_P4E.1_K4.1_C4.1_H4.1_A4.1_[T5G]_[A6T]_F4.1_[A9G]_T4.1 (ssRNA)
RNA: UUUGACAACUGAUCGUUCUUUCUUGUAGUUUGUUCUUUCUCGAUCAGUUGUCUUU
Take B17: binding was characterised by a dissociation constant (Kd) of 65 nM.

B18: Ic_S4_P4E.1_K4.1_C4.1_H4.1_A4.1_[T5G]_[A6T]_[T7A]_F4.1_[T8C]_[A9T]_T4.1 (ssRNA)
RNA: UUUGACAACUGAUCGUUCUUUCUUGUAGUACUUUCUUUCUCGAUCAGUUGUCUUU
Molecule B18 returned a Kd of 285 nM.

B19: Ic_S4_P4E.1_K4.1_C4.1_H4.1_A4.1_[T5G]_[A6T]_[T7A]_F4.1_[T8C]_[A9G]_T4.1 (ssRNA)
RNA: UUUGACAACUGAUCGUUCUUUCUUGUAGUACGUUCUUUCUCGAUCAGUUGUCUUU
For B19, the Kd turned out to be 688 nM. Compared with the last molecule, the Kd is about 2.4-fold higher.

B20: Ic_S4_P4E.1_K4.1_C4.1_H4.1_A4.1_[T5G]_[A6T]_[T7A]_F4.1_T4.1 (ssRNA)
RNA: UUUGACAACUGAUCGUUCUUUCUUGUAGUAUAUUCUUUCUCGAUCAGUUGUCUUU
In the case of B20, binding was characterised by a dissociation constant (Kd) of 2.95 nM.

B21: Ic_S4_P4E.1_K4.1_C4.1_H4.1_A4.1_[T5G]_[A6C]_F4.1_[A9T]_T4.1 (ssRNA)
RNA: UUUGACAACUGAUCGUUCUUUCUUGUAGCUUUUUCUUUCUCGAUCAGUUGUCUUU
As for B21, binding was characterised by a dissociation constant (Kd) of 40.5 nM.

B22: Ic_S4_P4E.1_K4.1_C4.1_H4.1_A4.1_[T5G]_[A6T]_[T7C]_F4.1_[T8C]_[A9G]_T4.1 (ssRNA)
RNA: UUUGACAACUGAUCGUUCUUUCUUGUAGUCCGUUCUUUCUCGAUCAGUUGUCUUU
Molecule B22 had a Kd of 701 nM.

B23: Ic_S4_P4E.1_K4.1_C4.1_H4.1_A4.1_[T5G]_[A6T]_[T7C]_F4.1_[T8C]_[A9T]_T4.1 (ssRNA)
RNA: UUUGACAACUGAUCGUUCUUUCUUGUAGUCCUUUCUUUCUCGAUCAGUUGUCUUU
B23 displayed a Kd of 194 nM.

B24: Ic_S4_P4E.1_K4.1_C4.1_H4.1_A4.1_[T5G]_[A6T]_[T7A]_F4.1_[A9C]_T4.1 (ssRNA)
RNA: UUUGACAACUGAUCGUUCUUUCUUGUAGUAUCUUCUUUCUCGAUCAGUUGUCUUU
B24 came in with an equilibrium dissociation constant (Kd) of 173 nM.

B25: Ic_S4_P4E.1_K4.1_C4.1_H4.1_A4.1_[T5G]_[A6T]_[T7A]_F4.1_[A9G]_T4.1 (ssRNA)
RNA: UUUGACAACUGAUCGUUCUUUCUUGUAGUAUGUUCUUUCUCGAUCAGUUGUCUUU
The molecule B25 gave a Kd of 37.3 nM. Compared with the last molecule, the Kd is about 4.6-fold lower.

B26: Ic_S4_P4E.1_K4.1_C4.1_H4.1_A4.1_[T5G]_[A6T]_[T7C]_F4.1_[T8G]_[A9T]_T4.1 (ssRNA)
RNA: UUUGACAACUGAUCGUUCUUUCUUGUAGUCGUUUCUUUCUCGAUCAGUUGUCUUU
In turn, B26 had a Kd of 616 nM.

B27: Ic_S4_P4E.1_K4.1_C4.1_H4.1_A4.1_[T5C]_[A6G]_[T7G]_F4.1_[T8C]_[A9T]_T4.1 (ssRNA)
RNA: UUUGACAACUGAUCGUUCUUUCUUGUACGGCUUUCUUUCUCGAUCAGUUGUCUUU
B27: binding was put at a Kd of 488 nM.

B28: Ic_S4_P4E.1_K4.1_C4.1_H4.1_A4.1_[T5C]_[A6G]_[T7C]_F4.1_[T8G]_[A9G]_T4.1 (ssRNA)
RNA: UUUGACAACUGAUCGUUCUUUCUUGUACGCGGUUCUUUCUCGAUCAGUUGUCUUU
Molecule B28 displayed a Kd of 1800 nM.

B29: Ic_S4_P4E.1_K4.1_C4.1_H4.1_A4.1_[T5G]_[A6T]_[T7A]_F4.1_[T8A]_[A9C]_T4.1 (ssRNA)
RNA: UUUGACAACUGAUCGUUCUUUCUUGUAGUAACUUCUUUCUCGAUCAGUUGUCUUU
For B29, binding was put at a Kd of 977 nM. This Kd is about 1.8-fold lower than that of the molecule before.

B30: Ic_S4_P4E.1_K4.1_C4.1_H4.1_A4.1_[T5G]_[A6T]_[T7C]_F4.1_[T8C]_T4.1 (ssRNA)
RNA: UUUGACAACUGAUCGUUCUUUCUUGUAGUCCAUUCUUUCUCGAUCAGUUGUCUUU
Regarding B30, the Kd stood at 445 nM. This Kd lies about 2.2-fold lower than the previous one.

B31: Ic_S4_P4E.1_K4.1_C4.1_H4.1_A4.1_[T5G]_[A6T]_[T7G]_F4.1_[T8C]_[A9C]_T4.1 (ssRNA)
RNA: UUUGACAACUGAUCGUUCUUUCUUGUAGUGCCUUCUUUCUCGAUCAGUUGUCUUU
B31: the affinity, expressed as Kd, was 1240 nM. This Kd is about 2.8-fold higher than that of the molecule before.

B32: Ic_S4_P4E.1_K4.1_C4.1_H4.1_A4.1_[T5C]_[A6G]_[T7G]_F4.1_[A9T]_T4.1 (ssRNA)
RNA: UUUGACAACUGAUCGUUCUUUCUUGUACGGUUUUCUUUCUCGAUCAGUUGUCUUU
B32 returned a Kd of 158 nM. Compared with the last molecule, the Kd is about 7.8-fold lower.

B33: Ic_S4_P4E.1_K4.1_C4.1_H4.1_A4.1_[T5G]_[A6T]_F4.1_[A9T]_T4.1 (ssRNA)
RNA: UUUGACAACUGAUCGUUCUUUCUUGUAGUUUUUUCUUUCUCGAUCAGUUGUCUUU
Regarding B33, binding was characterised by a dissociation constant (Kd) of 55.8 nM. In the case of UCUCUUUGUGUAUUUUCUCUU (ssRNA) [Ib_S1_P4E.1_K4.1_C4.1_H4.1_[A4G]_A4.1_F4.1_[A9T]_T4.1] it was 33.2 nM; in that of UCUCUUUGUCUAUUUUCUCUU (ssRNA) [Ib_S1_P4E.1_K4.1_C4.1_H4.1_[A4C]_A4.1_F4.1_[A9T]_T4.1], 807 nM.
